Experimental findings from patent US11110154 are described below.

What all share (test): cell_activity
The test system of data set [1] is ZFP 33074-KOX (ZFP-TF repressor) (synthetic construct). The note with it: lentiviral, CAG17/48 neurons; apoptosis ~50% to 20%; AAV in Q175 mice reduced mHtt aggregates (P<0.001); indirect evidence of binding; scale: % increase of intracellular ATP in HD neurons.
Data set [2] has as its system ZFP 30640 (ZFP-TF repressor) (synthetic construct). The note with it: AAV, Q175 mouse striatum (~179 CAG), injected at 2 months; indirect evidence of binding.
For data set [3], the system named is ZFP 30645 (ZFP-TF repressor) (synthetic construct). Particulars: AAV, Q175 mouse striatum (~179 CAG), injected at 2 months; indirect evidence of binding.

The sequence “AGCAGCAGCAGCAGCAGCAGCAGCAGCA (double strand) [Htt CAG repeat, 33074 target]” had an activity in data set [1] of 60.

Turning to “CAGCAGCAGCAGCAGCAGCAGCAGCAGC (double strand) [Htt CAG repeat, 30640 target]”, in data set [2], the activity (% reduction of nuclear Htt aggregates) is over 90. “CAGCAGCAGCAGCAGCAGCAGCAGCAGC (double strand) [Htt CAG repeat, 30645 target]”: the activity (% reduction of nuclear Htt aggregates) in data set [3] was over 90.
